These are literature values, as cited in PMC6964287.

The target in one series is Asp85 (UniProt position 98, WARYADWLFTT). Nature of the series: NMR. The following applies: membrane-associated pHLIP; protonation linked to bilayer insertion.
For a further series, the target named is Asp96 (UniProt position 109, PLLLLDLALLV). Description: NMR. To be noted: membrane-associated pHLIP; protonation linked to bilayer insertion.

As to “pHLIP (pH-Low Insertion Peptide), peptide derived from bacteriorhodopsin helix C (Halobacterium salinarum)”, the pKa with Asp85 is listed as 5.82 ± 0.08; with Asp96 it was 6.08 ± 0.08.

One may read the pKa as the negative logarithm of the acid dissociation constant.
